Experimental data as given in patent US20160039895A1 (published 2016).
Changes are numbered by the printed parent chain. In names and notes the source's numbering stands.

B1: scVEGFrgd-7I (designed binder)
chain: EVVKAMDVYQRSYCHPIETLVDIFQEYPDEIEYIFKPSCVPLMRCGGCCNDAGLECVPTEESNITMQIMRIKPHQGQHIGEMSFLQHNKCECRPKKDGSTSGSGKSSEGKGEVVKFMDVYQRSYCHPIETLVDIFQEYPDEIEYAFKPSCVPLMRCGGCCNDEGLECVPTEESNITMQIMRPSVRRGDSPASHIGEMSFLQHNKCECRPKKDTR
notes: Soluble protein from P. pastoris with C-terminal hexahistidine tag, with or without N-terminal FLAG tag; also called scVEGF-7I
B2: scVEGFrgd-7H (designed binder)
chain: EVVKAMDVYQRSYCHPIETLVDIFQEYPDEIEYIFKPSCVPLMRCGGCCNDAGLECVPTEESNITMQIMRIKPHQGQHIGEMSFLQHNKCECRPKKDGSTSGSGKSSEGKGEVVKFMDVYQRSYCHPIETLVDIFQEYPDEIEYAFKPSCVPLMRCGGCCNDEGLECVPTEESNITMQIMRPGGRGDSAYHIGEMSFLQHNKCECRPKKDTR
notes: Soluble protein from P. pastoris with C-terminal hexahistidine tag, with or without N-terminal FLAG tag; also called scVEGF-7H
B3: scVEGFrgd-7P (designed binder)
chain: B2 chain with G183A, G184S, A189P, Y190P
notes: Soluble protein from P. pastoris with C-terminal hexahistidine tag, with or without N-terminal FLAG tag; also called scVEGF-7P
B4: scVEGF-mA (designed binder)
chain: EVAKAMDVYQKSYCHPIETLVDILQEYPDEIGYIFKPSCVPLMRCGGCCNDAGLECVPTEESNITMQIMRIKPYQGQHIGEMSFLQHNKCECRPKKDGSTSGSGKSSEGKGEVVKFMDVYQRSYCHPIETLVDIFQEYPDKIEYAFKPSCVPLMRCGGCCNNEGLECVPTEESNITMQITRAKPHQGQHIGEMSFLQHNKCECRPKKD
notes: Soluble protein from P. pastoris with C-terminal hexahistidine tag, with or without N-terminal FLAG tag (tags not included in the parts); also called scVEGFmut-A
B5: scVEGF-mE (designed binder)
chain: B4 chain with A3V, K11R, D51G, Y74H, Q75R, K115R, D140N, K141E, T180M
notes: Soluble protein with C-terminal hexahistidine tag, with or without N-terminal FLAG tag (tags not included in the parts); also called scVEGFmut-E
B6: scVEGF-mJ (designed binder)
chain: B4 chain with V2I, A3V, M6R, K11R, G32E, Q77H, K141E, T180M, I190T
notes: Soluble protein with C-terminal hexahistidine tag, with or without N-terminal FLAG tag (tags not included in the parts); also called scVEGFmut-J
B7: scVEGF-mM (designed binder)
chain: EVVKAMDVYRRSYCHPVETSVDILQEYPDEIEYIFKPSCVPLMRCGGCCNDAGLECVPTEESNTTMQIMRIKPYRGQHIGEMSFLQHNKCECRPKKDGSTSGSGKSSEGKGEVVKFMDVYQRSYCHPIETLVDIFQEYPDEIEYAFKPSCVSLMRCGGCCNNEGLECVPTEESNITVQIMGAKPHQGQHIGEMSFLQHNKCECRPKKD
notes: Soluble protein with C-terminal hexahistidine tag, with or without N-terminal FLAG tag (tags not included in the parts); also called scVEGFmut-M
B8: scVEGFmut (designed binder)
chain: YVEVVKAMDVYQRSYCHPIETLVDIFQEYPDEIEYIFKPSCVPLMRCGGCCNDAGLECVPTEESNITMQIMRIKPHQGQHIGEMSFLQHNKCECRPKKDGSTSGSGKSSEGKGEVVKFMDVYQRSYCHPIETLVDIFQEYPDEIEYAFKPSCVPLMRCGGCCNDEGLECVPTEESNITMQIMRAKPHQGQHIGEMSFLQHNKCECRPKKDTR
notes: scVEGF with chain 1 F17A, E64A and chain 2 I46A, I83A (VEGF121 numbering); Soluble protein from P. pastoris with C-terminal hexahistidine tag, with or without N-terminal FLAG tag
B9: scVEGFwt (ligand)
chain: B8 chain with A7F, A54E, A147I, A184I
notes: also called wild-type scVEGF; single-chain VEGF
B10: scVEGFrgd-7B (designed binder)
chain: B2 chain with G183H, G184D, S188A, A189G, Y190V
notes: Soluble protein from P. pastoris with C-terminal hexahistidine tag, with or without N-terminal FLAG tag

Target: T1, αiibβ3 integrin on transfected K562 cells (UniProt P08514 32-1039; P05106 27-788, limits assumed)
T1 construct: whole, on cells
Assay: flow cytometry on K562 cells transfected with αiibβ3

Binder | binding result
B1 | no binding
B2 | no binding
B3 | no binding
B4 | no binding
B5 | no binding
B6 | no binding
B7 | no binding

Target: T2, human αvβ3 integrin on cells (human, UniProt P06756 31-1048; P05106 27-788)
T2 construct: whole, on cells; also called avb3; alpha v beta 3
Assay: flow cytometry on U87MG cells (no VEGFR2; receptor not named by the filing)

Binder | binding result
B8 | no binding (tested: 1 µM)
B4 | no binding (tested: 1 µM)
B5 | no binding (tested: 1 µM)
B6 | no binding (tested: 1 µM)
B7 | no binding (tested: 1 µM)

Target: T2, human αvβ3 integrin on cells
Assay: flow cytometry titration on U87MG cells (no VEGFR2; receptor not named by the filing), anti-FLAG detection

Binder | Kd
B1 | 13.9 nM
B2 | 15.6 nM
B3 | 29 nM

Target: VEGFR2 and αvβ3 integrin, both expressed on SVR angiosarcoma cells (murine cell line) (murine) (UniProt P35918)
Assay: flow cytometry titration on SVR cells (VEGFR2 and αvβ3 both present), anti-FLAG detection

VEGFR2 and αvβ3 integrin, both expressed on SVR angiosarcoma cells (murine cell line) (murine), sequence (P35918 20-1345, chain 1 of 3): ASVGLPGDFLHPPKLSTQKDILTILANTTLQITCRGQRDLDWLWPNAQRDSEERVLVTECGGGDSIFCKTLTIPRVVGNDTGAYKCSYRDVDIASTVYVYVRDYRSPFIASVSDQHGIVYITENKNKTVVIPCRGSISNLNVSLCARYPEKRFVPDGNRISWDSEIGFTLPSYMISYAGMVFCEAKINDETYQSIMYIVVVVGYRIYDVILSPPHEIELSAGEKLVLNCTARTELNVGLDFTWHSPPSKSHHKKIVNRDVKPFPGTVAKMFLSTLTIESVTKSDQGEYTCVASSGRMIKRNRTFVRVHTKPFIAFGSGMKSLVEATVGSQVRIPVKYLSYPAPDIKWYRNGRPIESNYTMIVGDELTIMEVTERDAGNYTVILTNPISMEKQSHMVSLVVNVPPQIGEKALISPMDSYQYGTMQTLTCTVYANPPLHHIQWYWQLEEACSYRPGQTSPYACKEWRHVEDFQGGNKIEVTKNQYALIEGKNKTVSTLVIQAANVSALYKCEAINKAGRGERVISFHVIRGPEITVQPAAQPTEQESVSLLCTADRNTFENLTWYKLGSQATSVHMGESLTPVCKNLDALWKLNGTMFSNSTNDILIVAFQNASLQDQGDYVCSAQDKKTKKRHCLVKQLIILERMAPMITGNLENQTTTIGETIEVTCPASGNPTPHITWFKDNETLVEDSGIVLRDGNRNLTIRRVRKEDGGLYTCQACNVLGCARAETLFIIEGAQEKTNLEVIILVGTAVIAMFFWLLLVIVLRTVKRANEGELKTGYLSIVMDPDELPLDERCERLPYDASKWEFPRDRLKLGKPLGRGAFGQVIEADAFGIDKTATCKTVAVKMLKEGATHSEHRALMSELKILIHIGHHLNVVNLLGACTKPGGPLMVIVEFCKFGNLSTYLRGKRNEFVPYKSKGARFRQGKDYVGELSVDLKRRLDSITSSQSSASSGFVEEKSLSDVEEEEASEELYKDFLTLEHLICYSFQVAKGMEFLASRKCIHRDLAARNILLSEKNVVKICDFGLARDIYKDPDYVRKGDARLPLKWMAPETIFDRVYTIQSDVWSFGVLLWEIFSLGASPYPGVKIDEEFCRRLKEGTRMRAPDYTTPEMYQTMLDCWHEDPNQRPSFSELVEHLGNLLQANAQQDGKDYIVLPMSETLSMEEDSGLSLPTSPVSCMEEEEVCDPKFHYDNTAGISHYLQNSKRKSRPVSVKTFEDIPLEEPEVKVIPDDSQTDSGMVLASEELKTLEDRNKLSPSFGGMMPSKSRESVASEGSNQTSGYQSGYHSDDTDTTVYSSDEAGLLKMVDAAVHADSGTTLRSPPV
VEGFR2 and αvβ3 integrin, both expressed on SVR angiosarcoma cells (murine cell line) (murine), sequence (P43406 31-1044, chain 2 of 3, further chain): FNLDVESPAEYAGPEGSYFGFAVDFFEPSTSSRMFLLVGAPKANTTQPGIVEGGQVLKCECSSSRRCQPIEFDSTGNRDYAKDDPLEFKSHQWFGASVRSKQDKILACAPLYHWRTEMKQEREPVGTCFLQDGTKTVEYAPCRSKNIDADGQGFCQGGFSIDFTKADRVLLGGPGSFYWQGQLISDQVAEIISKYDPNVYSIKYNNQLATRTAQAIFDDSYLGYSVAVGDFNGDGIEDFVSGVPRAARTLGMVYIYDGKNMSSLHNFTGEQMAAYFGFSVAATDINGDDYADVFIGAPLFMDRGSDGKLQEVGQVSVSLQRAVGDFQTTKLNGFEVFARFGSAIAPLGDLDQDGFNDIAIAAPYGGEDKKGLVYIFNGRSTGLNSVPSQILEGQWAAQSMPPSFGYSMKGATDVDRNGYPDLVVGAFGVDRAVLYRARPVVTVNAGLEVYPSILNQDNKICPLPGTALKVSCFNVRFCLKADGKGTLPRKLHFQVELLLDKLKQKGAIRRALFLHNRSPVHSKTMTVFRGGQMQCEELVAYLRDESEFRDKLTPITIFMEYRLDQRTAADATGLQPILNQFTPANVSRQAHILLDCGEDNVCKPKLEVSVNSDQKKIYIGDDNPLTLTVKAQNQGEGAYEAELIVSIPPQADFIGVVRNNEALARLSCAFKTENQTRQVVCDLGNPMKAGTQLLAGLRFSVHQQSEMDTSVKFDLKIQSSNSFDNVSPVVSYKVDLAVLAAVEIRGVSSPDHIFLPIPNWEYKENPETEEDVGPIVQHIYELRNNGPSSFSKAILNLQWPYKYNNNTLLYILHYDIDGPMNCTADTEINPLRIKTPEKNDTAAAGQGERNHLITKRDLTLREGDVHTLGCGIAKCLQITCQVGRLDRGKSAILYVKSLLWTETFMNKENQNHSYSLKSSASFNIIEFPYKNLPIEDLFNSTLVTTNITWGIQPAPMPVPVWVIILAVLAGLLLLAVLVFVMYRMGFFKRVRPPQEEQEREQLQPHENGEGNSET
VEGFR2 and αvβ3 integrin, both expressed on SVR angiosarcoma cells (murine cell line) (murine), sequence (O54890 26-787, chain 3 of 3, further chain): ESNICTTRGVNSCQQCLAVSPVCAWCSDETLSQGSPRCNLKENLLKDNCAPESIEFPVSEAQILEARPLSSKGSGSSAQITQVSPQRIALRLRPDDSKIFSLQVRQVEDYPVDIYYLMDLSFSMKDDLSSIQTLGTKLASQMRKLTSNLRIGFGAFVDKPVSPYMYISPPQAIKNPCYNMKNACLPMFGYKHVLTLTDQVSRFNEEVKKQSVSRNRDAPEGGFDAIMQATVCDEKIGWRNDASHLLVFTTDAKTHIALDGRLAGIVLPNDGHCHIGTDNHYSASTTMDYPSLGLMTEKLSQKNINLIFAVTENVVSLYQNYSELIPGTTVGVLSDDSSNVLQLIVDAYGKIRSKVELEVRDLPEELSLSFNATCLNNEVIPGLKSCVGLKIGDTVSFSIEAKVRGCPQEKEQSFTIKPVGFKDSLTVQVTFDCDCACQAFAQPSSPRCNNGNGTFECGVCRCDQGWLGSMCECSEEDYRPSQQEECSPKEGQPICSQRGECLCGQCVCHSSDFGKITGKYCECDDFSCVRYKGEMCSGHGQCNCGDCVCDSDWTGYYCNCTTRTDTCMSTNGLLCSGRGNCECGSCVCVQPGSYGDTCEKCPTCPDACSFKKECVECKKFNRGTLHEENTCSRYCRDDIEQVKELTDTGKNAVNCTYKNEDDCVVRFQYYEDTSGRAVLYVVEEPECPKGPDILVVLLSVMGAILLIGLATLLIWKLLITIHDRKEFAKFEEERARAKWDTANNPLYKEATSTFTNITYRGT

Binder | Kd
B1 | 37 nM
B2 | 18 nM
B3 | 31 nM

Target: T3, porcine αvβ3 integrin on PAE cells (porcine, UniProt A0A5K1V6L8 31-1052; A0A8D0RDV2 33-793)
T3 construct: whole, on cells
Assay: flow cytometry titration on PAE cells, anti-FLAG detection

Binder | Kd
B1 | 18.6 nM
B2 | 26.5 nM
B3 | 26.9 nM

Target: T4, human VEGFR2 on cells (PAE/KDR cells, HUVEC) (human, UniProt P35968 20-1356)
T4 construct: whole, on cells
Assay: flow cytometry titration on HUVEC, anti-FLAG detection

Binder | Kd
B9 | 28 nM
B8 | 101 nM
B4 | 36 nM
B5 | 53 nM
B6 | 39 nM

Target: T5, VEGFR2 on SVR angiosarcoma cells (murine cell line) (murine, UniProt P35918 20-1345)
T5 construct: whole, on cells
Assay: flow cytometry titration on SVR cells, optimized conditions of Example 3, anti-FLAG detection

T5 sequence (P35918 20-1345): as the sequence (P35918 20-1345, chain 1 of 3) above

Binder | Kd
B8 | > 40 nM
B5 | 0.7 nM

Target: T3, porcine αvβ3 integrin on PAE cells
Assay: flow cytometry on PAE cells

Binder | binding result
B9 | no binding (tested: 1 µM)
B8 | no binding (tested: 1 µM)
B4 | no binding (tested: 1 µM)
B5 | no binding (tested: 1 µM)
B6 | no binding (tested: 1 µM)
B7 | no binding (tested: 1 µM)

Target: T4, human VEGFR2 on cells (PAE/KDR cells, …)
Assay: flow cytometry titration on HUVEC, optimized conditions of Example 3, anti-FLAG detection

Binder | Kd
B8 | 44 nM
B5 | 0.4 nM

Target: T6, α5β1 integrin on wild-type K562 cells (UniProt P08648 42-1049; P05556 21-798, limits assumed)
T6 construct: whole, on cells
Assay: flow cytometry on wild-type K562 cells

T6 sequence (P08648 42-1049 limits assumed, chain 1 of 2): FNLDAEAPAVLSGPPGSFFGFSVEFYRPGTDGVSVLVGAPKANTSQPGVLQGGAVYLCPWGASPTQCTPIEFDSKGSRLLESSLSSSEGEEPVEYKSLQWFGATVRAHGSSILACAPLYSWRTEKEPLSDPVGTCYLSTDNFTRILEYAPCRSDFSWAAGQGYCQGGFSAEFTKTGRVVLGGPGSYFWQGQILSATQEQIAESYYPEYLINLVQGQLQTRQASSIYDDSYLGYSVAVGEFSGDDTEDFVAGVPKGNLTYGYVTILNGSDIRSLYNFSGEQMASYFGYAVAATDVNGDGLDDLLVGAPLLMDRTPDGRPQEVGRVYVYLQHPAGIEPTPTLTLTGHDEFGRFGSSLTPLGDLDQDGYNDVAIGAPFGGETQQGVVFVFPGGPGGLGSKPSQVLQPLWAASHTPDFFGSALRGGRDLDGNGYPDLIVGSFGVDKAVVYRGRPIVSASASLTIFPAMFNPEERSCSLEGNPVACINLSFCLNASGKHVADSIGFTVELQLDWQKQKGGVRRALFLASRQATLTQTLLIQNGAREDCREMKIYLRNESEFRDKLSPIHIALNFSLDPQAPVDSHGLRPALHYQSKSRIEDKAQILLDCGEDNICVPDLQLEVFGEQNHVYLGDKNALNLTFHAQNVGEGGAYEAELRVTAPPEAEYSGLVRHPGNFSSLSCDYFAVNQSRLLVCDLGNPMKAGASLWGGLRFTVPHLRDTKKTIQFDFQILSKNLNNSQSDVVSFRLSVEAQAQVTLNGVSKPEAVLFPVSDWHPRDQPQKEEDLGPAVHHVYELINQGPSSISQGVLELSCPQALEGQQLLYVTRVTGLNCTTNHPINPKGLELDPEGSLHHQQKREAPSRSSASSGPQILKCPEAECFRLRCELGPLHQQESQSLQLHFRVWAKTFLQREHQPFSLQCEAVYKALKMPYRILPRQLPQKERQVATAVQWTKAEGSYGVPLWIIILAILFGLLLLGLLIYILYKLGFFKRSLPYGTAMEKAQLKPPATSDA
T6 sequence (P05556 21-798 limits assumed, chain 2 of 2): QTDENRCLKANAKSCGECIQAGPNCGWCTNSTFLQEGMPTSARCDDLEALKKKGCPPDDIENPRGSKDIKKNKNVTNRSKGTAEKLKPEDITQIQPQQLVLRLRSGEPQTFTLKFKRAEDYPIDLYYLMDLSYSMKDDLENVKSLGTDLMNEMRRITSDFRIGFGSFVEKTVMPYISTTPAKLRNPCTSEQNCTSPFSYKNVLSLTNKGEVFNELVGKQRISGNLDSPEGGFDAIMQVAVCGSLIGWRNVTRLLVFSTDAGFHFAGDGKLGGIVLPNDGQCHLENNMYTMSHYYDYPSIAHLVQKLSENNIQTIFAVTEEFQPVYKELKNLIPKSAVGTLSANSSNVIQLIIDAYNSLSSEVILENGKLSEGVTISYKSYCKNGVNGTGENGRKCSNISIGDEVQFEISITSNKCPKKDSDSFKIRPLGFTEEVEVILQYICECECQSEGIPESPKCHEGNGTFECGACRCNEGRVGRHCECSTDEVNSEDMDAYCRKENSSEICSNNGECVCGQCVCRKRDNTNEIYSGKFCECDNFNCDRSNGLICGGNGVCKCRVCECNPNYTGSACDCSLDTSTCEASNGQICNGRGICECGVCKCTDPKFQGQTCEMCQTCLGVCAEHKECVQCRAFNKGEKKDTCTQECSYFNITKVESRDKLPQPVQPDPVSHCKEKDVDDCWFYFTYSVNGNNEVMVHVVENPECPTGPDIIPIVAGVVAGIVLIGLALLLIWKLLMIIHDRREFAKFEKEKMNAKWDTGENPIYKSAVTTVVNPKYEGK

Binder | binding result
B1 | no binding
B2 | no binding
B3 | no binding
B4 | no binding
B5 | no binding
B6 | no binding
B7 | no binding

Target: VEGFR2 and αvβ3 integrin, both expressed on human umbilical vein endothelial cells (HUVEC) (human) (UniProt P35968)
Assay: cell-based or functional assay

Binder | inhibition of VEGF-induced autophosphorylation of VEGFR-2 in HUVEC in the presence of vitronectin
B1 | 80%

Target: T2, human αvβ3 integrin on cells
Assay: flow cytometry titration on K562-αvβ3 cells

Binder | Kd
B10 | 143 nM

Target: T2, human αvβ3 integrin on cells
Assay: cell-based or functional assay

Binder | IC50 of inhibition of vitronectin-mediated adhesion of HUVEC cells
B1 | < 10 nM
B2 | < 10 nM
B3 | < 10 nM

Target: T5, VEGFR2 on SVR angiosarcoma cells …
Assay: flow cytometry titration on SVR cells, anti-FLAG detection

Binder | Kd
B9 | 32 nM
B4 | 13 nM
B5 | 8 nM
B6 | 3 nM

Target: VEGFR2 and αvβ3 integrin, both expressed on human umbilical vein endothelial cells (HUVEC) (human) (UniProt P35968)
Assay: flow cytometry titration on HUVEC (VEGFR2 and αvβ3 both present), anti-FLAG detection

Binder | Kd
B1 | 6 nM
B2 | 12 nM
B3 | 45 nM

Target: T4, human VEGFR2 on cells (PAE/KDR cells, …)
Assay: flow cytometry titration on PAE/KDR cells, optimized conditions of Example 3, anti-FLAG detection

Binder | Kd
B8 | 55 nM
B4 | 0.5 nM
B5 | 0.9 nM
B6 | 0.5 nM

Target: T2, human αvβ3 integrin on cells
Assay: flow cytometry on K562-αvβ3 cells

Binder | binding result
B9 | no binding (tested: 1 µM)

Target: T7, αvβ5 integrin on transfected K562 cells (UniProt P06756 31-1048; P18084 24-799, limits assumed)
T7 construct: whole, on cells
Assay: flow cytometry on K562 cells transfected with αvβ5

Binder | binding result
B1 | no binding
B2 | no binding
B3 | no binding
B4 | no binding
B5 | no binding
B6 | no binding
B7 | no binding

Target: T8, recombinant human VEGFR2 extracellular domain (human, UniProt P35968 20-764)
T8 construct: extracellular domain; also called KDR; Flk-1
Assay: SPR (BIAcore 3000), VEGFR2 amine-coupled to CM5 chip, scVEGF as analyte, 1:1 model

Binder | Kd | koff | kon
B9 | 4 nM | 0.0007 s⁻¹ | 200000 M⁻¹ s⁻¹
B8 | 18 nM | 0.00146 s⁻¹ | 83000 M⁻¹ s⁻¹
B4 | 2.1 nM | 0.00049 s⁻¹ | 240000 M⁻¹ s⁻¹
B5 | 2.8 nM | 0.00061 s⁻¹ | 220000 M⁻¹ s⁻¹
B6 | 1.6 nM | 0.0003 s⁻¹ | 200000 M⁻¹ s⁻¹
B7 | 3.8 nM | 0.00108 s⁻¹ | 290000 M⁻¹ s⁻¹

Target: T4, human VEGFR2 on cells (PAE/KDR cells, …)
Assay: flow cytometry titration on PAE/KDR cells (also carry porcine αvβ3; filing ascribes binding to VEGFR2), anti-FLAG detection

Binder | Kd
B1 | 20 nM
B2 | 16 nM
B3 | 21 nM

Target: T5, VEGFR2 on SVR angiosarcoma cells …
Assay: flow cytometry on SVR cells

Binder | binding result
B7 | no binding (tested: 1 µM)

Target: T4, human VEGFR2 on cells (PAE/KDR cells, …)
Assay: flow cytometry titration on PAE/KDR cells, anti-FLAG detection

Binder | Kd
B9 | 9.8 nM
B8 | 17 nM
B4 | 5.7 nM
B5 | 6.6 nM
B6 | 6.9 nM
B7 | 34 nM

Target: T2, human αvβ3 integrin on cells
Assay: flow cytometry titration on K562-αvβ3 cells, anti-His detection

Binder | Kd
B1 | 34 nM
B2 | 36 nM
B10 | 140 nM
B3 | 37 nM
